Measurements taken from article PMC3604701.
Where two headings read alike, the source gives them in different places. Each block holds one substance with its values, some of them ahead of it.

Columns and labels:
[1] = target: LSD1 (residues 151–852), lysine-specific demethylase 1 (human) (UniProt O60341); test: ITC
[2] = target: LSD1 (residues 151–852), lysine-specific demethylase 1 (human) (UniProt O60341); test: ITC; remark: listed apart in the source
[3] = target: LSD1 (residues 151–852), lysine-specific demethylase 1 (human) (UniProt O60341); test: ITC; remark: listed apart in the source
[4] = target: LSD1 (residues 151–852), lysine-specific demethylase 1 (human) (UniProt O60341); test: ITC; remark: listed apart in the source
[5] = target: LSD1 (residues 151–852), lysine-specific demethylase 1 (human) (UniProt O60341); test: ITC; remark: listed apart in the source
[6] = target: LSD1 (residues 151–852), lysine-specific demethylase 1 (human) (UniProt O60341); test: ITC; remark: listed apart in the source
[7] = target: LSD1 (residues 151–852), lysine-specific demethylase 1 (human) (UniProt O60341); test: ITC; remark: listed apart in the source
[8] = target: LSD1 (residues 151–852), lysine-specific demethylase 1 (human) (UniProt O60341); test: ITC; remark: listed apart in the source
[9] = target: LSD1 (residues 151–852), lysine-specific demethylase 1 (human) (UniProt O60341); test: ITC; remark: listed apart in the source
[10] = target: LSD1 (residues 151–852), lysine-specific demethylase 1 (human) (UniProt O60341); test: ITC; remark: listed apart in the source
[11] = target: LSD1 (residues 151–852), lysine-specific demethylase 1 (human) (UniProt O60341); test: ITC; remark: listed apart in the source
[12] = target: LSD1 (residues 151–852), lysine-specific demethylase 1 (human) (UniProt O60341); test: ITC; remark: listed apart in the source
[13] = target: LSD1 (residues 151–852), lysine-specific demethylase 1 (human) (UniProt O60341); test: ITC; remark: listed apart in the source
[14] = target: CoREST (RCOR1) residues 286-482 (linker region + SANT2 domain) (UniProt Q9UKL0); test: SPR; conditions: pH 7.4; no added salt; not stated numerically; 50 mM sodium phosphate
[15] = target: CoREST (RCOR1) residues 286-482 (linker region + SANT2 domain) (UniProt Q9UKL0); test: ITC; conditions: pH 7.4; 25 °C; no added salt; not stated numerically; 50 mM sodium phosphate
[16] = target: CoREST (RCOR1) residues 286-482 (linker region + SANT2 domain) (UniProt Q9UKL0); test: ITC; conditions: pH 7.4, 25 °C, no added salt, not stated numerically
[17] = target: CoREST (RCOR1) residues 286-482 (linker region + SANT2 domain) (UniProt Q9UKL0); test: ITC; conditions: pH 7.4, no added salt, not stated numerically, 50 mM sodium phosphate

Chain of UniProt Q9UKL0 (Q9UKL0 whole entry, the tested form may be a part): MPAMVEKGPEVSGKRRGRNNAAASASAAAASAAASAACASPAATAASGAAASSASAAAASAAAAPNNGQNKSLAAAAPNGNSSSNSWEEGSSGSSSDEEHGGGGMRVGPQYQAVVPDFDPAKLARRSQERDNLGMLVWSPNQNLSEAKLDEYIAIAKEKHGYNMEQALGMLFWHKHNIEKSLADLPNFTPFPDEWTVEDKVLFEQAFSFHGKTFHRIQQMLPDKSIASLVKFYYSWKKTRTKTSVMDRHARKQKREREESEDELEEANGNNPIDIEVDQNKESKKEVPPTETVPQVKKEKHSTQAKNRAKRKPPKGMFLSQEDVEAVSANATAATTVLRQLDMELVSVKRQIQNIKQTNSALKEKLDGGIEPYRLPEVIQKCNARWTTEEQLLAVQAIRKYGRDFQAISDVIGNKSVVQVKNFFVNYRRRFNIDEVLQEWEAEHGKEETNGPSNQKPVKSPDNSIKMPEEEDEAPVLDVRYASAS

Kd [1]: 17.3 nM
dH (ΔHcal) [1]: -19.5 kcal/mol
stoichiometry N [1]: 1.11
Kd [2]: 11.7 nM
dH (ΔHcal) [2]: -15.2 kcal/mol
stoichiometry N [2]: 1.01
Kd [3]: 7.66 nM
dH [3]: -15.6 kcal/mol
stoichiometry N [3]: 1
Kd [4]: 21.7 nM
dH [4]: -4.24 kcal/mol
stoichiometry N [4]: 0.99
Kd [5]: 4.18 nM
dH [5]: -8.56 kcal/mol
stoichiometry N [5]: 0.9
Kd [6]: 6.75 nM
dH [6]: -12.9 kcal/mol
stoichiometry N [6]: 1
Kd [7]: 8.03 nM
dH [7]: -20.2 kcal/mol
stoichiometry N [7]: 0.97
Kd [8]: 5.84 nM
dH (ΔHcal) [8]: -17.4 kcal/mol
stoichiometry N [8]: 0.91
Kd [9]: 21.2 nM
dH (ΔHcal) [9]: -12.6 kcal/mol
stoichiometry N [9]: 0.93
Kd [10]: 8.54 nM
dH (ΔHcal) [10]: -10.9 kcal/mol
stoichiometry N [10]: 0.92
Kd [11]: 3.7 nM
dH [11]: -16.1 kcal/mol
stoichiometry N [11]: 1.03
Ka [12]: 6.29e+07 M⁻¹
Kd [12]: 15.9 nM
dH [12]: -21.3 kcal/mol
stoichiometry N [12]: 1.14
Kd [13]: 3.18 nM
dH [13]: -12.1 kcal/mol
stoichiometry N [13]: 1.01
Substance: CoREST^286–482 (linker region and SANT2 domain) (domain or fragment)

koff [14]: 7.78e-05 s⁻¹
kon [14]: 56300 M⁻¹ s⁻¹
ΔG [15]: -11.6 kcal/mol
ΔH [15]: -12.1 kcal/mol
ΔG ([16]; 50 mM ACES): -10.1 kcal/mol
ΔHcal ([16]; 50 mM ACES): -12.6 kcal/mol
ΔG ([16]; 50 mM HEPES): -10.9 kcal/mol
ΔHcal ([16]; 50 mM HEPES): -15.2 kcal/mol
ΔG ([16]; 50 mM PIPES): -11.2 kcal/mol
ΔHcal ([16]; 50 mM PIPES): -17.4 kcal/mol
ΔG ([16]; 50 mM Tris): -10.8 kcal/mol
ΔHcal ([16]; 50 mM Tris): -10.9 kcal/mol
ΔG ([16]; 50 mM sodium phosphate): -10.6 kcal/mol
ΔHcal ([16]; 50 mM sodium phosphate): -19.5 kcal/mol
ΔG ([17]; 15 °C): -10.1 kcal/mol
Ka ([17]; 25 °C): 6.29e+07 M⁻¹
ΔG ([17]; 25 °C): -10.6 kcal/mol
ΔH ([17]; 25 °C): -21.3 kcal/mol
ΔG ([17]; 30 °C): -11.7 kcal/mol
ΔG ([17]; 35 °C): -11.4 kcal/mol
Substance: LSD1 (KDM1A, lysine-specific histone demethylase 1) residues 151-852

Kd [12]: 7.78 nM
dH [12]: -13.5 kcal/mol
stoichiometry N [12]: 0.96
Substance: linker region^293–380 of CoREST (domain or fragment)
